B1: Pyrobaculum calidifontis arcadin-2 (natural protein)
chain: MDFPKVLLIRHFTEVLGMKYAGEGGEVLWFEEGLNRVAVGIYFTDLYEEAELYKRVGALMGLGASKVFLAVLPDALAFVDPRYFKANGVGLVVVDPAKGVDGVEVKIFARARPAAVEPLKIDAVKAALHEYLASELKRVEESLFEKVRRYVDQRVEEVKRALQAVEEAKRAAPPVQRAAAESAQEPRGGIGENEWVKILRSKR

How the values were obtained:
[1] = molecular target: T1, Pyrobaculum calidifontis crenactin (Pyrobaculum calidifontis, UniProt A3MWN5 1-432); test: SPR; fast phase
[2] = molecular target: T1, Pyrobaculum calidifontis crenactin; test: SPR; slow phase
[3] = molecular target: T1, Pyrobaculum calidifontis crenactin; test: SPR; fast phase; remark: listed apart in the source
[4] = molecular target: T1, Pyrobaculum calidifontis crenactin; test: SPR; slow phase; remark: listed apart in the source
[5] = molecular target: T1, Pyrobaculum calidifontis crenactin; test: SPR
[6] = molecular target: T1, Pyrobaculum calidifontis crenactin; test: SPR; remark: listed apart in the source

T1 sequence (A3MWN5 whole entry): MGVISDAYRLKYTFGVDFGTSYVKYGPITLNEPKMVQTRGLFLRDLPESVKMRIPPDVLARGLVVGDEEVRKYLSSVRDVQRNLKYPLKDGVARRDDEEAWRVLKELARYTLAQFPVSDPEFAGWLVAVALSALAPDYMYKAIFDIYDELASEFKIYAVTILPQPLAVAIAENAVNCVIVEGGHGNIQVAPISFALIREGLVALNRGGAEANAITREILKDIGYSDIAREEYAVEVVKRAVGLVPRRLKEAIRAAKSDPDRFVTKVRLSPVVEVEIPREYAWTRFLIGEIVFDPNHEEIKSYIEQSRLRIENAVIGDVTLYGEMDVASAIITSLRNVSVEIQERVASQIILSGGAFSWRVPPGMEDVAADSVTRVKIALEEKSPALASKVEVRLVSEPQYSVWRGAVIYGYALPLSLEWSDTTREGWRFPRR

Binder	Kd [1]	Kd [2]	koff [3]	koff [4]	koff [5]	Kd [6]
B1	0.024 µM	0.059 µM	0.019 s⁻¹	0.0034 s⁻¹		
RGGIGENEWVKILRSKR [arcadin-2 C-terminal peptide (residues 187-203)]					0.019 s⁻¹	0.009 µM

Source: paper PMC5173319 (2016)
